Source: patent US20240400614A1, “CLEAVABLE PEPTIDES AND METHODS OF USE THEREOF” (Bright Peak Therapeutics AG, priority 2023, published 2024)
Square brackets hold non-standard residues; d marks the D form. Ends that are not written are not given here. Tyr(3-NO2) = N[C@@H](Cc1ccc(O)c([N+](=O)[O-])c1)C(=O)O; 2Abz = Nc1ccccc1C(=O)O

Legend:
Type in all cases: biochemical
uPA = uPA (Homo sapiens, UniProt P00749); assay: FRET peptide cleavage efficiency with uPA; details: 200 uM linker, 1 ug/ml protease, 37° C., buffer A pH 8.5
Kallikrein-3 = Kallikrein-3 (Homo sapiens, UniProt P07288); assay: FRET peptide cleavage efficiency with Kallikrein-3; details: peptide 200 uM, Kallikrein-3 2 μg/ml, 37° C., pH 8
Kallikrein-3, sequence (P07288 25-261, species assumed): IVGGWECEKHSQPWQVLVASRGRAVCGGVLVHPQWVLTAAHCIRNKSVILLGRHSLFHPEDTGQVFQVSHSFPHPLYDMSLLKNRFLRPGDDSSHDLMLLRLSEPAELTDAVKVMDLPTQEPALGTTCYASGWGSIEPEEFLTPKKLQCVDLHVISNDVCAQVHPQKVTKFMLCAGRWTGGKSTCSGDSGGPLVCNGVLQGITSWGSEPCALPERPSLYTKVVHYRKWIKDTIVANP

matriptase = target: T1, matriptase (Homo sapiens, UniProt Q9Y5Y6); assay: FRET peptide cleavage efficiency with matriptase; details: 200 uM linker, 1 ug/ml protease, 37° C., buffer B pH 9.0
T1 construct: purchased R&D Systems 3946-SEB
T1 sequence (Q9Y5Y6 615-855 limits assumed): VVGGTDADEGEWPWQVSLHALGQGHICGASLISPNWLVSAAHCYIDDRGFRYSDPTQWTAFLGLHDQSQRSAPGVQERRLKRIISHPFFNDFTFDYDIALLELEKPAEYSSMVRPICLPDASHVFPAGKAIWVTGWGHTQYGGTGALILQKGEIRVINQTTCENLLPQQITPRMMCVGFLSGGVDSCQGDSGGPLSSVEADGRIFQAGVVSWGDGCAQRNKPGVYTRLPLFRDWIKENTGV

MMP-2 = target: T2, MMP-2 (Homo sapiens, UniProt P08253); assay: FRET peptide cleavage efficiency with MMP-2; details: 200 uM linker, 1 ug/ml protease, 37° C., buffer C pH 7.5
T2 construct: purchased SIGMA PF023
T2 sequence (P08253 110-660): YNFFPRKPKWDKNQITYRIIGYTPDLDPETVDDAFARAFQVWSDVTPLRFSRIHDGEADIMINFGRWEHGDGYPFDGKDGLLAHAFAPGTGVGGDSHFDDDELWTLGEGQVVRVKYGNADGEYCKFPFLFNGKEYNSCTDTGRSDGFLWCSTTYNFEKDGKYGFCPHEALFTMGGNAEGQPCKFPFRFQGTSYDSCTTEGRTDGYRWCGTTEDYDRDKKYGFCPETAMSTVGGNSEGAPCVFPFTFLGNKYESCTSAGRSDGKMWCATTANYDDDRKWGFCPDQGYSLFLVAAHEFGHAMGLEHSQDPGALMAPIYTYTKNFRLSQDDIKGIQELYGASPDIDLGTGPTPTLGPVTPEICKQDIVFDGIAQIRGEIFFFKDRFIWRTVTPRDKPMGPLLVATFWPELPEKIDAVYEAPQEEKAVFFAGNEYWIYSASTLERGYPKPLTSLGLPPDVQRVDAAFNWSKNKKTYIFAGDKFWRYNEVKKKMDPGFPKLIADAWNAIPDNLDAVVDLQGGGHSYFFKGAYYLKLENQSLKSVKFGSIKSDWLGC

Substance | % cleavage uPA t = 15 min (uPA) [%] | % cleavage uPA t = 60 min (uPA) [%] | % cleavage uPA t = 120 min (uPA) [%] | Kallikrein-3 t = 1 h % cleavage (Kallikrein-3) [%] | Kallikrein-3 t = 3 h % cleavage (Kallikrein-3) [%] | Kallikrein-3 t = 6 h % cleavage (Kallikrein-3) [%] | Kallikrein-3 t = 8 h % cleavage (Kallikrein-3) [%] | % cleavage Matriptase t = 15 min (matriptase) [%] | % cleavage Matriptase t = 60 min (matriptase) [%] | % cleavage Matriptase t = 120 min (matriptase) [%] | % cleavage MMP-2 t = 15 min (MMP-2) [%] | % cleavage MMP-2 t = 60 min (MMP-2) [%] | % cleavage MMP-2 t = 120 min (MMP-2) [%]
GSSVYSGR ([2Abz]GSSVYSGR[Tyr(3-NO2)]-NH2) [LNK080] | 4 | 17 | 28 | 16 | 41 | 68 | 79 | 2 | 6 | 10 | 1 | 3 | 5
GSSYYSGA ([2Abz]GSSYYSGA[Tyr(3-NO2)]-NH2) [LNK079] | 0 | 0 | 0 | 34 | 75 | 99 | 100 | 0 | 0 | 0 | 10 | 42 | 70
HSSKLQL ([2Abz]HSSKLQL[Tyr(3-NO2)]-NH2) [LNK078] | 0 | 0 | 0 | 10 | 34 | 64 | 79 | 0 | 0 | 0 | 3 | 6 | 8

Second part, the substance after the results:

% cleavage uPA t = 15 min (uPA) [%] | % cleavage uPA t = 60 min (uPA) [%] | % cleavage uPA t = 120 min (uPA) [%] | Kallikrein-3 t = 1 h % cleavage (Kallikrein-3) [%] | Kallikrein-3 t = 3 h % cleavage (Kallikrein-3) [%] | Kallikrein-3 t = 6 h % cleavage (Kallikrein-3) [%] | Kallikrein-3 t = 8 h % cleavage (Kallikrein-3) [%] | % cleavage Matriptase t = 15 min (matriptase) [%] | % cleavage Matriptase t = 60 min (matriptase) [%] | % cleavage Matriptase t = 120 min (matriptase) [%] | % cleavage MMP-2 t = 15 min (MMP-2) [%] | % cleavage MMP-2 t = 60 min (MMP-2) [%] | % cleavage MMP-2 t = 120 min (MMP-2) [%] | Substance
0 | 0 | 0 | 0 | 0 | 0 | 0 | 0 | 0 | 0 | 0 | 0 | 0 | ISQYSSAT ([2Abz]ISQYSSAT[Tyr(3-NO2)]-NH2) [LNK070]
0 | 0 | 0 | 23 | 55 | 83 | 94 | 0 | 0 | 0 | 1 | 13 | 28 | KLYSSKQ ([2Abz]KLYSSKQ[Tyr(3-NO2)]-NH2) [LNK071]
0 | 0 | 0 | 9 | 30 | 56 | 69 | 0 | 0 | 0 | 3 | 4 | 6 | KSKQHSL ([2Abz]KSKQHSL[Tyr(3-NO2)]-NH2) [LNK077]
